Consider 11 molecules from patent US20030198640A1 (Human Genome Sciences, published 2003).

T1: full length TNF-gamma-beta expressed on the cell surface (HEK293F stable transfectants); cells transfected … (human, UniProt O95150 1-251)
T1 construct: also called TNF-gamma-beta expressing cells
T1 sequence: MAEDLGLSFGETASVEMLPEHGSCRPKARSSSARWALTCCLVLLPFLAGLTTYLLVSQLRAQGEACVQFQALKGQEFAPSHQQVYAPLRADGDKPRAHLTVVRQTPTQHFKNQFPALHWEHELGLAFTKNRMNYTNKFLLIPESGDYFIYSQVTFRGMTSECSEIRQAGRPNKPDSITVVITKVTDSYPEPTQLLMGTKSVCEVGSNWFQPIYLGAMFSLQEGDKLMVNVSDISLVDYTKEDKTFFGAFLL

T2: TR6-Fc (full-length human TNFR-6 alpha, SEQ ID NO:6 aa 1-300, fused to the Fc domain of human IgG1) (human, UniProt O95407 30-300)
T2 construct: also called TNFR-6 alpha Fc fusion protein; DcR3-Fc; not shown: Fc domain of human IgG1
T2 sequence: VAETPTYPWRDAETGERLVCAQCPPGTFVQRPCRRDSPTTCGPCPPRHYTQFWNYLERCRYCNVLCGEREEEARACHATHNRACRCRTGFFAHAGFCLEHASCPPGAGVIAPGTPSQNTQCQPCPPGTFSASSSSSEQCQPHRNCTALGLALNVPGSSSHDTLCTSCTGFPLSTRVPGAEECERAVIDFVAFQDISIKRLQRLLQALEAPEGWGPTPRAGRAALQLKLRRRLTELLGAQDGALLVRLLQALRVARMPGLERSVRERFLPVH

T3: TR2-Fc (extracellular domain of human TR2, aa 1-192, fused to the Fc domain of human IgG1) (human, UniProt Q92956 39-192)
T3 construct: range 1-192; also called HveA-Fc; not shown: Fc domain of human IgG1
T3 sequence (looked up): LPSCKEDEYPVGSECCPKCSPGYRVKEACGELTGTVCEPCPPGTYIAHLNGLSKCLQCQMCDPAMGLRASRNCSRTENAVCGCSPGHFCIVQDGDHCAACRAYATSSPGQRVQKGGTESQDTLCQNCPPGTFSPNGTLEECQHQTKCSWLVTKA

T4: DR3, full length, on cells (transfected 293T cells; naturally expressed on TF-1 cells and T cells) (human, UniProt Q93038 25-417)
T4 sequence: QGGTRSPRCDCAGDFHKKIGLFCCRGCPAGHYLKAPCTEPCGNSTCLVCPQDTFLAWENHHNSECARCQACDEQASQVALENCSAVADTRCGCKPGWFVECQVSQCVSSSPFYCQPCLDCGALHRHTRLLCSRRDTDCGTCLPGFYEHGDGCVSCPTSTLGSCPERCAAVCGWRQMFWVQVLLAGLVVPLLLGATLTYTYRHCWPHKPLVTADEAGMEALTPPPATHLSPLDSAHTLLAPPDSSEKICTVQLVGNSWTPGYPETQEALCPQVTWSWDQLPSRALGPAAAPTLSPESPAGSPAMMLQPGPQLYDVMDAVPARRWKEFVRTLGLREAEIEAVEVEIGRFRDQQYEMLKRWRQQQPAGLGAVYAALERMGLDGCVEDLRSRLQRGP

B1: full-length human TR6 (without Fc), baculovirus/Sf9 (receptor)
chain: T2 sequence
notes: also called soluble TR6; non-Fc form of TR6
B2: full-length human LIGHT on cells (293F stable transfectants; endogenous LIGHT on activated human T cells) (ligand)
chain: MEESVVRPSVFVVDGQTDIPFTRLGRSHRRQSCSVARVGLGLLLLLMGAGLAVQGWFLLQLHWRLGEMVTRLPDGPAGSWEQLIQERRSHEVNPAAHLTGANSSLTGSGGPLLWETQLGLAFLRGLSYHDGALVVTKAGYYYIYSKVQLGGVGCPLGLASTITHGLYKRTPRYPEELELLVSQQSPCGRATSSSRVWWDSSFLGGVVHLEAGEEVVVRVLDERLVRLRDGTRSYFGAFMV
notes: also called cell membrane LIGHT; LIGHT-transfectants
B3: OX40 (Fc-fusion form of the extracellular domain) (Fc fusion, UniProt P43489 29-214, looked up)
chain: LHCVGDTYPSNDRCCHECRPGNGMVSRCSRSQNTVCRPCGPGFYNDVVSSKPCKPCTWCNLRSGSERKQLCTATQDTVCRCRAGTQPLDSYKPGVDCAPCPPGHFSPGDNQACKPWTNCTLAGKHTLQPASNSSDAICEDRDPPATQPQETQGPPARPITVQPTEAWPRTSQGPSTRPVEVPGGRA
notes: extracellular domain; not shown: Fc part
B4: DcR1 (Fc-fusion form of the extracellular domain) (Fc fusion, UniProt O14798 26-221, looked up)
chain: ATTARQEEVPQQTVAPQQQRHSFKGEECPAGSHRSEHTGACNPCTEGVDYTNASNNEPSCFPCTVCKSDQKHKSSCTMTRDTVCQCKEGTFRNENSPEMCRKCSRCPSGEVQVSNCTSWDDIQCVEEFGANATVETPAAEETMNTSPGTPAPAAEETMNTSPGTPAPAAEETMTTSPGTPAPAAEETMTTSPGTPA
notes: as for B3
B5: TNFR1-Fc (Fc fusion, UniProt P19438 30-211, looked up)
chain: LVPHLGDREKRDSVCPQGKYIHPQNNSICCTKCHKGTYLYNDCPGPGQDTDCRECESGSFTASENHLRHCLSCSKCRKEMGQVEISSCTVDRDTVCGCRKNQYRHYWSENLFQCFNCSLCLNGTVHLSCQEKQNTVCTCHAGFFLRENECVSCSNCKKSLECTKLCLPQIENVKGTEDSGTT
notes: as for B3
B6: DcR2 (Fc-fusion form of the extracellular domain) (Fc fusion, UniProt Q9UBN6 56-211, looked up)
chain: ATIPRQDEVPQQTVAPQQQRRSLKEEECPAGSHRSEYTGACNPCTEGVDYTIASNNLPSCLLCTVCKSGQTNKSSCTTTRDTVCQCEKGSFQDKNSPEMCRTCRTGCPRGMVKVSNCTPRSDIKCKNESAASSTGKTPAAEETVTTILGMLASPYH
notes: as for B3
B7: AITR (Fc-fusion form of the extracellular domain) (Fc fusion, UniProt Q9Y5U5 26-162, looked up)
chain: QRPTGGPGCGPGRLLLGTGTDARCCRVHTTRCCRDYPGEECCSEWDCMCVQPEFHCGDPCCTTCRHHPCPPGQGVQSQGKFSFGFQCIDCASGTFSGGHEGHCKPWTDCTQFGFLTVFPGNKTHNAVCVPGSPPAEP
notes: as for B3
B8: human LIGHT protein, natural secreted form (aa 83-240), E. coli (ligand)
chain: LIQERRSHEVNPAAHLTGANSSLTGSGGPLLWETQLGLAFLRGLSYHDGALVVTKAGYYYIYSKVQLGGVGCPLGLASTITHGLYKRTPRYPEELELLVSQQSPCGRATSSSRVWWDSSFLGGVVHLEAGEEVVVRVLDERLVRLRDGTRSYFGAFMV
notes: also called soluble LIGHT
B9: RANK (Fc-fusion form of the extracellular domain) (Fc fusion, UniProt Q9Y6Q6 30-212, looked up)
chain: IAPPCTSEKHYEHLGRCCNKCEPGKYMSSKCTTTSDSVCLPCGPDEYLDSWNEEDKCLLHKVCDTGKALVAVVAGNSTTPRRCACTAGYHWSQDCECCRRNTECAPGLGAQHPLQLNKDTVCKPCLAGYFSDAFSSTDKCRPWTNCTFLGKRVEHHGTEKSDAVCSSSLPARKPPNEPHVYLP
notes: as for B3
B10: TNF-gamma-β (form used not stated) (ligand)
chain: LKGQEFAPSHQQVYAPLRADGDKPRAHLTVVRQTPTQHFKNQFPALHWEHELGLAFTKNRMNYTNKFLLIPESGDYFIYSQVTFRGMTSECSEIRQAGRPNKPDSITVVITKVTDSYPEPTQLLMGTKSVCEVGSNWFQPIYLGAMFSLQEGDKLMVNVSDISLVDYTKEDKTFFGAFLL
B11: OPG (Fc-fusion form) (Fc fusion, UniProt O00300 22-194, looked up)
chain: ETFPPKYLHYDEETSHQLLCDKCPPGTYLKQHCTAKWKTVCAPCPDHYYTDSWHTSDECLYCSPVCKELQYVKQECNRTHNRVCECKEGRYLEIEFCLKHRSCPPGFGVVQAGTPERNTVCKRCPDGFFSNETSSKAPCRKHTNCSVFGLLLTQKGNATHDNICSGNSESTQK
notes: as for B3

Assay [1] has as its target B8. Nature of the assay: BIAcore. The protocol: (§1) The amount of bound protein was determined during washing of the flow cell with HBS buffer (10 mM HEPES, pH 7.4, 150 mM NaCl, 3.4 mM EDTA, 0.005% Surfactant P20). The flow cell surface was regenerated by washing off the bound proteins with 20 microliters of 10 mM glycine-HCl pH 2.3. […] The on- and off-rates were determined according a kinetic evaluation program in the BiaEvaluation 3 software using a 1:1 binding model and the global analysis method.
(§2) We determined the kinetics of binding of LIGHT to both the Fe and non-Fc versions of TR6 according to BIAcore analysis.
A general note: In SPR one partner is held on a chip, and binding of the other changes the refractive index at the surface.

In assay [2] the target is T1, full length TNF-gamma-beta expressed on …. Nature of the assay: flow cytometry competition on HEK293F cells expressing TNF-gamma-beta; competitor of DR3-Fc. The protocol:
(§3) These cells were used to screen the Fc-fusion form of the extracellular domain of TNFR family members, including TNFR1, Fas, HveA, DR3, DR4, DR5, DR6, DcR1, DcR2, TR6, OPG, RANK, AITR, TAC1, CD40, and OX40. […] TR6 has been previously described as a decoy receptor (Pitti et al., Nature 396:699-703 (1998); Yu et al., J. Biol. Chem. 274:13733-6 (1999)) capable of competing with Fas and HveA for binding of FasL and LIGHT, respectively.
(§4) One million cells, in 0.1 ml of FACS buffer (PBS, 0.1% BSA, 0.1% NaN₃), were incubated with 0.1-1 microgram of protein or antibody at RT for 15 min. The cells were washed with 3 ml of FACS buffer, reacted with biotinylated primary antibody, and stained with PE-conjugated secondary antibody at RT for 15 min. Cells were then washed again, resuspended in 0.5 microgram/ml of propidium iodide, and live cells were gated and analyzed on a FACScan using the CellQuest software (BD Biosciences).
On the technique in general: In flow cytometry, cells or beads pass a laser one at a time.

For assay [3], the target named is B1. Nature of the assay: flow cytometry competition on activated human T cells.
The target of assay [4] is T2, TR6-Fc (full-length human TNFR-6 alpha, …). Description: flow cytometry on 293 cells overexpressing LIGHT. The protocol:
Cells were incubated with Fc-fusion proteins in 100 ul FACS buffer (d-PBS with 0.1% sodium azide and 0.1% BSA) for 15-20 minutes at room temperature. The cells were washed once and reacted with goat F (ab)₂ anti-human IgG (Southern Biotechnology, Birmingham, Ala.) for 15 minutes at room temperature. After wash, the cells were resuspended in 0.5 ug/ml propidium iodide, and live cells were gated and analyzed on a FACScan (BD Biosciences, Mansfield, Mass.).
This was tested on 293 cells overexpressing LIGHT according to flow cytometry.

In assay [5] the target is T1, full length TNF-gamma-beta expressed on …. Nature of the assay: flow cytometry on HEK293F cells expressing full length TNF-gamma-beta. The protocol: as §3, §4
The target in assay [6] is T2, TR6-Fc (full-length human TNFR-6 alpha, …). Description: BIAcore; TR6-Fc form. The protocol:
as §1, §2

In assay [7] the target is T3, TR2-Fc (extracellular domain of human …). Description: BIAcore, TR2-Fc immobilised; TR2-Fc, not TR6.
Assay [8] deals with B1. Nature of the assay: BIAcore; non-Fc TR6.
Assay [9] concerns the target T4, DR3, full length, on cells (transfected …). Description: cell-based or functional assay.

In the case of B1, the “fold off rate against TR6-Fc” value in assay [1] was ~2 fold. Further, the “molar ratio TR6 to DR3-Fc at which no DR3-Fc binding was detected” value in [2] was 2 molar ratio (TR6:DR3-Fc).
For B2, the binding result in assay [3] and in assay [4] was “binds” throughout.
For B3, the binding result in assay [5] was “no binding”.
On the same count and under the same terms, to B4 belongs “no binding”.
Same read-out and setting: to B5 belongs “no binding”.
In the case of B6, the binding result in assay [5] was “no binding”.
Still for that read-out and setting: to B7 belongs “no binding”.
On to B8, for which, in assay [6], binding was characterised by a dissociation constant (Kd) of 5.46 nM, the koff amounted to 0.0023 s⁻¹ and the kon was 422000 M⁻¹ s⁻¹. Further, the affinity in [7], expressed as Kd, was 4.56 nM. Moreover, in assay [8], the Kd came to 14.3 nM, the koff came to 0.00483 s⁻¹ and the kon was 338000 M⁻¹ s⁻¹.
As to B9, the binding result in assay [5] is recorded as “no binding”.
Take B10: the “IFNγ production by anti-CD2 stimulated lamina propria mononuclear cells (ELISA)” value in [9] was ≥ 2 fold.
In the case of B11, the binding result in assay [5] is “no binding”.

In general, Kd refers to the free concentration of one partner at which half of the binding sites on the other are occupied at equilibrium, for simple one-to-one binding. High values mean weaker binding, low ones tighter binding. One may read the koff as a measure of how fast the partners let go of each other. By kon is commonly meant a measure of how fast the partners come together. Low values mean slow association, high ones fast association.
